# Assay results from patent US7893216B2 (The Institute of Basic Medical Sciences of Chinese Academy …, priority 2004, dated 2011).
# Tests used:
# [1] = test system: tumor cells such as liver and lung cancer; assay: Synergy of tumoricidal activity with TRAIL; format: cell-based; settings: combined with TRAIL
# [2] = test system: leukemia, liver and lung cancer cells; assay: Tumoricidal activity in vitro (MTS cell viability); format: cell-based, human
# Experimental: (§1) After treatment, MTS reagent (Promega, USA) was then added and reacted for 2-4 hours and the absorbance values (OD value) of each well were read by using an automatic multi-well spectrophotometer, Wellscan MK3 (Thermo Labsystems, Finland) at the wavelength of 492 nm. OD value of no cell wells is considered as “0,” and the survival rate of the cells is equal to ratio of OD value of treated wells to OD value of control wells.
# [3] = test system: liver cancer cells SMMC-7721; assay: Tumoricidal activity in vivo, SMMC-7721 cells in nude mice; parameters: species or system nude mice BALB/c; settings: SMMC-7721 in nude mice
# Experimental: (§2) The dose was 15 mg/kg, three times administration in total. The mice of negative control group (n=8) were administrated with physical saline. The mice of positive control group (n=5) were administrated with cyclophosphamide (CTX, 60 mg/kg). […] Three weeks later, the mice were sacrificed and the growth of tumor was determined by the weight of the tumor mass.
# [4] = test system: human leukemia, liver and lung cancer cells; assay: Suppression of tumor formation and growth of human tumor cells in nude mice; format: in vivo; settings: compared to the control group
# Experimental: as §2
# [5] = Toxicity study in mice
# [6] = test system: Jurkat cells; assay: Western blot of caspase activation and PARP cleavage; format: cell-based, human
# Experimental: After the collected cells were lysed in cell cleavage solution, SDS-PAGE was used, the proteins separated in the gel were subsequently electrotransferred onto a polyvinylidene difluoride (PVDF) membrane. The membrane was then incubated with the indicated primary antibodies (Santa Cruz, USA) and probed with HRP-conjugated secondary antibodies (Beijing Zhongshan Co.). The proteins were visualized by ECL Plus Western Blotting Detection System (Amersham Biosciences, USA).
# [7] = test system: human primary normal lymphocytes; assay: Effect on normal human primary lymphocytes in vitro (MTS); format: cell-based
# Experimental: as §1
# [8] = molecular target: T1, recombinant human DR4 extracellular domain protein (Homo sapiens, UniProt O00220); assay: ELISA cross-reactivity of AD5-10 with DR4; format: binding
# T1 construct: recombinant human DR4 or DR5 extracellular domain protein expressed in E. coli; made in house; host or cells: E. coli
# Experimental: ELISA was used for testing the specific combination of AD5-10 with its anitgen. ELISA plates (Costar, USA) were coated with recombinant human DR4 or DR5 extracellular domain protein expressed in E. coli over night, blocked with 5% nonfat milk at room temperature for two hours. […] The absorbency at 492 nm was measured on a microtiter reader of enzyme-labelled machine, Wellscan MK3 (Thermo Labsystems, Finland).
# T1 sequence (O00220 24-239 limits assumed): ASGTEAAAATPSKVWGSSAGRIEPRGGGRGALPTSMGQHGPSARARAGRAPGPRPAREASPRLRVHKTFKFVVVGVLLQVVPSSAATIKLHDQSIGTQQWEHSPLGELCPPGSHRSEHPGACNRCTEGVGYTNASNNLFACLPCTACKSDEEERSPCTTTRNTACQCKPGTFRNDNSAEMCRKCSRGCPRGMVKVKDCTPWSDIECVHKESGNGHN
molecule,measurement,setting,value
"AD5-10: murine monoclonal antibody against human TRAIL receptor DR5, subtype IgG3κ, VL SEQ ID No. 1, VH SEQ ID No. 2, hybridoma CGMCC 1192 (antibody, V domains shown, mus musculus) VH: QIQLVQSGPELKKPGETVKISCKASGYTFTDFSMNWVKQAPGKGLKWMGWINTETGEPTYADDFKGRFALSMETSASTAYLQINNLKNEDTATYFCVRIDYWGQGTTLTVSS VL: DVVMTQTPLSLPVSLGDQASISCRSSQSLVHSNGNTYLHWYLQKPGQSPKLLIYKVSNRFSGVPDRFSGSGSGTDFTLKISRVEAEDLGVYFCFQSTHVPHTFGGGTKLEIKR",synergy with TRAIL,[1],can synergize the tumoricidal activity with TRAIL
same,killing of tumor cells,[2],"kills leukemia, liver and lung cancer cells with dose-dependent manner"
same,tumor formation,[3]; early treatment,inhibits the tumor formation
same,tumor growth,[3]; late treatment,inhibites the tumor growth
same,inhibition rate,[4],about 80%
same,"death and abnormalism in appetite, function, skin and hair","[5]; 150 mg/kg, 1 and 2 month's observation",does not cause observably death
same,histological analysis of organs,"[5]; mice, organs such as liver",no pathological changes
same,caspase cascade activation and PARP cleavage,[6],activates caspase cascade and PARP (poly ADP-ribose polymerase) cleavage
same,toxicity to normal lymphocytes,[7],without toxicity to human primary normal lymphocytes in vitro
same,cross-reaction with death receptor DR4,[8],does not cross-react
